Data from patent US20210361653A1 (MAYO FOUNDATION FOR MEDICAL EDUCATION AND RESEARCH, published 2021).

Tests used:
[1] = target: T1, BRD3 SBC motif-deleted mutant (human, UniProt Q15059 1-726, limits assumed); experiment: co-IP with anti-FLAG antibody, 293T cells
T1 construct: Deletion mutant; also called FLAG-BRD3 mutant; not shown: FLAG tag

[2] = target: T2, BRD4 SBC motif-deleted mutant (human, UniProt O60885 1-1362, limits assumed); experiment: co-IP with anti-FLAG antibody, 293T cells
T2 construct: Deletion mutant; also called FLAG-BRD4 mutant; not shown: FLAG tag

[3] = target: T3, BRD2 SBC motif-deleted mutant (human, UniProt P25440 1-801, limits assumed); experiment: co-IP with anti-FLAG antibody, 293T cells
T3 construct: Deletion mutant; also called FLAG-BRD2 mutant; not shown: FLAG tag

BRD2 = target: T4, BRD2 (human, UniProt P25440 1-801); experiment: co-immunoprecipitation, 293T (ectopic) and LNCaP (endogenous) cells
T4 construct: also called bromodomain containing 2; FLAG-BRD2
Experimental: (§1) To immunoprecipitate the ectopically expressed FLAG-tagged proteins, transfected cells were lysed 24 hours post-transfection in BC100 buffer. The whole-cell lysates were immunoprecipitated with the monoclonal anti-FLAG antibody-conjugated M2 agarose beads (Sigma-Aldrich) at 4° C. overnight. After three washes with lysis buffer, followed by two washes with BC100 buffer, the bound proteins were eluted using FLAG-Peptide (Sigma-Aldrich) prepared in BC100 for 3 hours at 4° C. The eluted protein sample was resolved by SDS-PAGE. To immunoprecipitate the endogenous proteins, cells were lysed with 1× cell lysis buffer (Cell Signaling Technology), and the lysate was centrifuged. The supernatant was precleared with protein AIG beads (Sigma-Aldrich) and incubated with the indicated antibody and protein A/G beads at 4° C. overnight. Beads were washed five times with lysis buffer and resuspended in sample buffer and analyzed by SDS-PAGE.
(§2) To identify new degradation substrates of SPOP, yeast two-hybrid screens using the full-length SPOP as bait were performed.

BRD3 = target: T5, BRD3 (human, UniProt Q15059 1-726); experiment: as above
T5 construct: also called bromodomain containing 3; FLAG-BRD3
Experimental: as §1, §2

B1: SPOP, wild-type (other, human, UniProt O43791 1-374, looked up)
chain: MSRVPSPPPPAEMSSGPVAESWCYTQIKVVKFSYMWTINNFSFCREEMGEVIKSSTFSSGANDKLKWCLRVNPKGLDEESKDYLSLYLLLVSCPKSEVRAKFKFSILNAKGEETKAMESQRAYRFVQGKDWGFKKFIRRDFLLDEANGLLPDDKLTLFCEVSVVQDSVNISGQNTMNMVKVPECRLADELGGLWENSRFTDCCLCVAGQEFQAHKAILAARSPVFSAMFEHEMEESKKNRVEINDVEPEVFKEMMCFIYTGKAPNLDKMADDLLAAADKYALERLKVMCEDALCSNLSVENAAEILILADLHSADQLKTQAVDFINYHASDVLETSGWKSMVVSHPHLVAEAYRSLASAQCPFLGPPRKRLKQS
notes: also called SPOP-WT; Myc-SPOP
binding result [1]: no binding
binding result [2]: no binding
binding result [3]: no binding
binding result (BRD2): binds
binding result (BRD3): binds
